Read-outs that look alike come from different tables or passages of the source.
Key:
[1] = molecular target: E. coli scaffold protein IscU (Escherichia coli) (UniProt P0ACD4); assay: native MS
[2] = molecular target: E. coli cysteine desulfurase IscS (Escherichia coli) (UniProt P0A6B7); assay: native MS
[3] = molecular target: E. coli scaffold protein IscU (Escherichia coli) (UniProt P0ACD4); assay: non-reducing SDS-PAGE with densitometry
[4] = molecular target: E. coli scaffold protein IscU (Escherichia coli) (UniProt P0ACD4); assay: native MS; remark: listed apart in the source

Sequence of UniProt P0A6B7 (P0A6B7 whole entry): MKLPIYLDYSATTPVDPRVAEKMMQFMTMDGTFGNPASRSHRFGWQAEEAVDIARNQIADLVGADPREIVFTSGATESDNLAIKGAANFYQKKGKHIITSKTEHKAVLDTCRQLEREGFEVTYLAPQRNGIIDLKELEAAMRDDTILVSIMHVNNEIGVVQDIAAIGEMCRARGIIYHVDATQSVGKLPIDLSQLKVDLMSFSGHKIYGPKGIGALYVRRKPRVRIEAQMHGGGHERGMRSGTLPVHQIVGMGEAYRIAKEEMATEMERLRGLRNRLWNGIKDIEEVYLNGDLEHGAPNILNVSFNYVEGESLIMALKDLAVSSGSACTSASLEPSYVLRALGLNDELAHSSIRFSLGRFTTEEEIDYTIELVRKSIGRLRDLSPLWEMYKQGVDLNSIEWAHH

percent dimer [1]: 59%
percent dimer (of the monomer-to-dimer ratio) [1]: 22%
stoichiometry N [1]: 2
fraction of IscS2 lacking IscU [2]: 11%
fraction of the IscU2–IscS2 complex [2]: 94%
fraction of the IscU2–IscS2 species [2]: 86%
fraction of the IscU-IscS2 complex [2]: 47%
fraction of the IscU-IscS2 species [2]: 6%
stoichiometry N (IscU per IscS dimer) [2]: 2
percent dimer [3]: 65%
percent dimer (of the monomer-to-dimer ratio) [4]: 14%
Substance: E. coli scaffold protein IscU (from UniProt P0ACD4 1-128) (natural protein)

Reference: article PMC7262672
